# Patent publication US20220185894A1 (F STAR THERAPEUTICS, published 2022)
# Read-outs that look alike come from different tables or passages of the source.
# T1: recombinant Fc-tagged human LAG-3 (R&D Systems, 2319-L3-050) (human, UniProt P18627 23-450)
# T1 construct: Bought protein; also called LAG-3 Fc; human LAG-3-Fc; not shown: Fc tag of the bought fusion protein
# T1 sequence: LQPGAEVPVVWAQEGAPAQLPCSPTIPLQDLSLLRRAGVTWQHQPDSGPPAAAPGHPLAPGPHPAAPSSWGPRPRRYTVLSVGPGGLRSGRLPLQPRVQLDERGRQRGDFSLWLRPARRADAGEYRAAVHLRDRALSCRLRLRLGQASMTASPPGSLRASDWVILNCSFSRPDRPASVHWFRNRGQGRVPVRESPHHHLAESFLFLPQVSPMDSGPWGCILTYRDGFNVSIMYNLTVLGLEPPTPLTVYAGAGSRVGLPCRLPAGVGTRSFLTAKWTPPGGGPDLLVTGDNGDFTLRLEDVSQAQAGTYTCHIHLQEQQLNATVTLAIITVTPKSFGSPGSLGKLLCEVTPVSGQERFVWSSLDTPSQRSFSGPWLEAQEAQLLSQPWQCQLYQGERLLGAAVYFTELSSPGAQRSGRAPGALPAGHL
# T2: mouse LAG-3 expressed on cells (mouse, UniProt Q61790 24-521)
# T2 construct: also called mLAG-3; murine LAG-3 HEK
# T2 sequence: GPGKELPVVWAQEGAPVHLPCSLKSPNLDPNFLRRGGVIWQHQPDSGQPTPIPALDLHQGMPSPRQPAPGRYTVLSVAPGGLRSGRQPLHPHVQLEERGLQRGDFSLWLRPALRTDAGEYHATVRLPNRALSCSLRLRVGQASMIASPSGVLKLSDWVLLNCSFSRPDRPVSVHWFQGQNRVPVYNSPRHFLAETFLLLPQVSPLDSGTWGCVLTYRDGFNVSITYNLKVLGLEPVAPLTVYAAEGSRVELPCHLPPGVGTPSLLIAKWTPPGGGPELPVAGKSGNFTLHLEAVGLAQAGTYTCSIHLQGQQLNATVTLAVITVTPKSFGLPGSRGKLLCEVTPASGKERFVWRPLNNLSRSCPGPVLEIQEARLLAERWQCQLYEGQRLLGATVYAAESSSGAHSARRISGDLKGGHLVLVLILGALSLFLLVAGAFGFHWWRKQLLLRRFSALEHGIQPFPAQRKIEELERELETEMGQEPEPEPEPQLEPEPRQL
# T3: mouse LAG-3 Fc (R&D Systems, 3328-L3-050) (mouse, UniProt Q61790 24-442)
# T3 construct: Bought protein; also called mLAG-3 Fc; murine LAG-3Fc; not shown: Fc tag of the bought fusion protein
# T3 sequence: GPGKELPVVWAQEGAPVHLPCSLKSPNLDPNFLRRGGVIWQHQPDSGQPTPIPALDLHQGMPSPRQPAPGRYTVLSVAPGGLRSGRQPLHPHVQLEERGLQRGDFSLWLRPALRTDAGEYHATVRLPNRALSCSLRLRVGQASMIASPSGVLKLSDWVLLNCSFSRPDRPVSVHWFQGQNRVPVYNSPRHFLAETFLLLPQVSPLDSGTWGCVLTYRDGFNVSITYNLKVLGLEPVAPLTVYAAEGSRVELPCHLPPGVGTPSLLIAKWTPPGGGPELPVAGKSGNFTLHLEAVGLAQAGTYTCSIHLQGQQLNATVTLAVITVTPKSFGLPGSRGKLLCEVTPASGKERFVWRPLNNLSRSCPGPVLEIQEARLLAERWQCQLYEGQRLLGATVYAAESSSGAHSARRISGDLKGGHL
# B1: anti-human PD-L1 mAb 84G09 with LALA mutation (antibody, human IgG1, kappa, L234A L235A)
# heavy: not shown
# light: DIQMTQSPSSLSASVGDRVTITCRASQSISSYLNWYQQKPGKAPKPLIYVASSLQSGVPSSFSGSGSGTDFTLTISSLQPEDFATYYCQQSYSNPITFGQGTRLEIKRTVAAPSVFIFPPSDEQLKSGTASVVCLLNNFYPREAKVQWKVDNALQSGNSQESVTEQDSKDSTYSLSSTLTLSKADYEKHKVYACEVTHQGLSSPVTKSFNRGEC
# notes: Human IgG1 with LALA; also called 84G09LALA; 84G09 LALA
# B2: anti-mouse LAG-3 Fcab FS18-7-108-29 (designed binder)
# chain: TCPPCPAPELLGGPSVFLFPPKPKDTLMISRTPEVTCVVVDVSHEDPEVKFNWYVDGVEVHNAKTKPREEQYNSTYRVVSVLTVLHQDWLNGKEYKCKVSNKALPAPIEKTISKAKGQPREPQVYTLPPSWDEPWGEDVSLTCLVKGFYPSDIVVEWESNGQPENNYKTTPPVLDSDGSFFLYSKLTVPFERWMWPDEFSCSVMHEALHNHYTQKSLSLSPG
# notes: Fcab (truncated hinge, CH2, CH3)
# B3: anti-mouse LAG-3 Fcab FS18-7-108-35 (designed binder)
# chain: TCPPCPAPELLGGPSVFLFPPKPKDTLMISRTPEVTCVVVDVSHEDPEVKFNWYVDGVEVHNAKTKPREEQYNSTYRVVSVLTVLHQDWLNGKEYKCKVSNKALPAPIEKTISKAKGQPREPQVYTLPPSWDEPWGEDVSLTCLVKGFYPSDISVEWESNGQPENNYKTTPPVLDSDGSFFLYSKLTVPFERWMWPDEFSCSVMHEALHNHYTQKSLSLSPG
# notes: as for B2
# B4: anti-human LAG-3 Fcab FS18-7-33 (designed binder)
# chain: TCPPCPAPELLGGPSVFLFPPKPKDTLMISRTPEVTCVVVDVSHEDPEVKFNWYVDGVEVHNAKTKPREEQYNSTYRVVSVLTVLHQDWLNGKEYKCKVSNKALPAPIEKTISKAKGQPREPQVYTLPPSWDEPWGEDVSLTCLVKGFYPSDIAVEWESNGQPEDNYKTTPPVLDSDGSFFLYSKLTVPYDRWVWPDEFSCSVMHEALHNHYTQKSLSLSPG
# B5: anti-human LAG-3 Fcab FS18-7-78 (designed binder)
# chain: TCPPCPAPELLGGPSVFLFPPKPKDTLMISRTPEVTCVVVDVSHEDPEVKFNWYVDGVEVHNAKTKPREEQYNSTYRVVSVLTVLHQDWLNGKEYKCKVSNKALPAPIEKTISKAKGQPREPQVYTLPPSWDEPWGEDVSLTCLVKGFYPSDIAVEWESNGYKEENYKTTPPVLDSDGSFFLYSKLTVPYDRWVWPDEFSCSVMHEALHNHYTQKSLSLSPG
# How the values were obtained:
# [1] = molecular target: T4, human PD-L1 Fc (R&D Systems, 156-B7) (human, UniProt Q9NZQ7 19-239); experiment: SPR, BIAcore T200; mAb captured on Protein L, PD-L1 Fc injected
# T4 construct: Bought protein; not shown: Fc tag of the bought fusion protein
# T4 sequence (Q9NZQ7 19-239 limits assumed): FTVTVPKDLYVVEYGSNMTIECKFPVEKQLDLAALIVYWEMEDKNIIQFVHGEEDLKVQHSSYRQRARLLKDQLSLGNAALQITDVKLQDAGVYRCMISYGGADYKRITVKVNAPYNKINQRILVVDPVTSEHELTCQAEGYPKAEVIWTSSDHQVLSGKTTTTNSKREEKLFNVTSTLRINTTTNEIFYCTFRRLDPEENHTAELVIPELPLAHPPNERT
# [2] = molecular target: T1, recombinant Fc-tagged human LAG-3 (R&D …); experiment: SPR, mAb captured on Protein L, human LAG-3 Fc injected (from 0.5 nM)
# Method: Protein L (Thermo, 21189) was immobilized on flow cells 1 and 2 of a Series S CM5 chip (GE Healthcare, BR-1005-30) by amine coupling (GE Healthcare, BR-1000-50) to a surface density of 2000 RU by following the manufacturer's instructions for the BIAcore T200 instrument. […] The association time was 3 min and the dissociation time was 6 min. Running buffer was HBS-P (GE Healthcare, BR-1003-68). Both flow cells were regenerated by injecting 10 mM sodium hydroxide (NaOH) at a flow rate of 100 μl/min for 20 seconds. The data were analysed by double referencing against the blank flow cell.
# The binding kinetics were fit with a 1:1 Langmuir model to generate binding association (kₐ) and dissociation (kd) rates. Equilibrium binding constants (KD) were calculated by dividing the dissociation rate by the association rate for each sample. Data analysis was performed with BiaEvaluation software version 3.2.
# [3] = molecular target: T2, mouse LAG-3 expressed on cells; experiment: flow cytometry on HEK cells expressing mouse LAG-3
# Method: The plates were centrifuged at 1500 rpm for 3 min at 4° C. to pellet the cells. […] (plates were kept in the dark). […] The plates were read using Canto II flow cytometer (BD Bioscience). Dead cells were excluded and the fluorescence in the FITC channel (488 nm/530/30) was measured. The data was fit using log (agonist) vs response in GraphPad Prism Software.
# [4] = molecular target: T2, mouse LAG-3 expressed on cells; experiment: flow cytometry on HEK cells expressing mouse LAG-3; remark: listed apart in the source
# Method: HEK cells expressing mLAG-3 grown in DMEM (Life Technologies, 61965-026) containing 10% FBS (Life Technologies, 10270-1-6), 100 μg/ml Hygromycin B (Melford Laboratories Ltd, Z2475), 15 μg/ml Blasticidin (Melford Laboratories Ltd, B1105) and 1 μg/ml Doxycyclin (Sigma, D9891) were detached from tissue culture flasks using cell dissociation buffer (Life Technologies, 13151-014). Cells were collected by centrifuged at 1500 rpm for 3 min at 4° C. to pellet the cells and then resuspended in 1×DPBS then seeded in V-bottom 96-well plates (Costar, 3897) at 1.2×10⁵ cells/well in 30 μl. A 1:1 volume of a dilution series of the mAb² (or control mAb) was added and incubated with the cells for 1 h at 4° C. The plates were washed and secondary antibody (Anti-human Fc-488, Jackson ImmunoResearch, 109-546-098) was diluted 1:1000 in PBS and 60 μl was added to the cells for 30 min at 4° C. (plates were kept in the dark). The plates were then washed and the cells resuspended in 60 μl PBS containing 1 μg/ml DAPI (Biotium, 40043). The plates were read using Canto II flow cytometer (BD Bioscience). Dead cells were excluded and the fluorescence in the FITC channel (488 nm/530/30) was measured. The data was fitted using log (agonist) vs response in GraphPad Prism Software.
# [5] = molecular target: T3, mouse LAG-3 Fc (R&D Systems, …); experiment: SPR, Biacore 3000; mLAG-3 Fc immobilised, Fcab injected
# Method: A Biacore 3000 (GE Healthcare) was used to measure the affinity of the surrogate Fcabs specific for mouse LAG-3 to mouse LAG-3. […] Fcabs were diluted in HBS-P buffer (GE Healthcare, BR-1003-68) and injected at various concentrations (fourfold dilutions from 100 nM) for 3 min at 20 μl/min and then allowed to dissociate in buffer for 12 min. The chip was regenerated by injection of 10 mM glycine pH 2.5 for 30 s at 30 μl/min. Data was double reference subtracted and analyzed using BIAevaluation 3.2 software to calculate kinetic constants.
# [6] = molecular target: T3, mouse LAG-3 Fc (R&D Systems, …); experiment: flow cytometry; inhibition of mouse LAG-3 Fc binding to MHC class II on A375 cells
# Method: (§1) The plates were centrifuged at 1500 rpm for 3 min at 4° C. to pellet the cells. […] LAG-3/Fcab mix was added to the A375 cells and incubated for 1 h at 4° C. Cells were washed. Secondary antibody (Alexa Fluor 488 conjugated goat anti-human Fc F(ab′)₂, Jackson Immunoresearch, 109-546-098 or Goat anti-mouse IgG (H+L) 488 conjugate, Life Technologies, A-1101) was diluted 1:1000 in PBS and 100 μl was added to the cells for 30 min at 4° C. (plates were kept in the dark). Cells were washed once in PBS and resuspended in 100 μl PBS+1 μg/ml DAPI (Biotium, 40043). The plates were read on a BD FACSCanto II cytometer (BD Biosciences) and the data analysed using FlowJo software.
# [7] = molecular target: T1, recombinant Fc-tagged human LAG-3 (R&D …); experiment: flow cytometry; inhibition of human LAG-3 Fc binding to MHC class II on A375 cells
# Method: as §1
binder,measurement,setting,value
B1,Kd,[1],1.2 nM
same,koff,[1],0.00046 s⁻¹
same,kon,[1],380000 M⁻¹ s⁻¹
same,binding result,[2],no binding
B2,EC50,[3],4.5 nM
same,EC50,[4],2.6 nM
same,Kd,[5],1.5 nM
same,IC50,[6],0.6 nM
B3,EC50,[3],4.5 nM
same,Kd,[5],2.1 nM
same,IC50,[6],0.7 nM
B4,IC50,[7],2.6 nM
B5,IC50,[7],2.4 nM
